In PMC5691135, “The semiquinone swing in the bifurcating electron transferring flavoprotein/butyryl-CoA dehydrogenase complex from Clostridium difficile” (Nature Communications, 2017):

Target: the molecule itself
Assay: crystal structure; X-ray structure of the co-produced and co-purified (EtfAB/Bcd)4 complex at 3.1 Å, D state; crystallised in 0.1 M calcium acetate, 14 % (v/v) PEG 400, 0.1 M MES, pH 6.5; protein at 20 mg/ml in 10 mM MOPS and 1 mM FAD, pH 7.0

B1: Butyryl-CoA dehydrogenase (Bcd) of the EtfAB/Bcd complex from Clostridium difficile (enzyme)
chain: MDLNSKKYQMLKELYVSFAENEVKPLATELDEEERFPYETVEKMAKAGMMGIPYPKEYGGEGGDTVGYIMAVEELSRVCGTTGVILSAHTSLGSWPIYQYGNEEQKQKFLRPLASGEKLGAFGLTEPNAGTDASGQQTTAVLDGDEYILNGSKIFITNAIAGDIYVVMAMTDKSKGNKGISAFIVEKGTPGFSFGVKEKKMGIRGSATSELIFEDCRIPKENLLGKEGQGFKIAMSTLDGGRIGIAAQALGLAQGALDETVKYVKERVQFGRPLSKFQNTQFQLADMEVKVQAARHLVYQAAINKDLGKPYGVEAAMAKLFAAETAMEVTTKAVQLHGGYGYTRDYPVERMMRDAKITEIYEGTSEVQRMVISGKLLK
notes: Butyryl-CoA dehydrogenase of Clostridium difficile DSM 1296 (ATCC 9689), gene bcd (CD 1054); N-terminal helical domain 1-116, medial β-sheet domain 117-227, C-terminal helical domain 228-378; Tetramer that forms the core of the (EtfAB/Bcd)4 complex; also called Bcd1; Bcd2
- stoichiometry N: 4
